Assay results as given in publication PMC4691284 (Developmental cell, 2015).

B1: Gas7 F-BAR domain (domain or fragment, human, UniProt O60861 196-456, looked up)
chain: TEWSYCDYFWADKKDPQGNGTVAGFELLLQKQLKGKQMQKEMSEFIRERIKIEEDYAKNLAKLSQNSLASQEEGSLGEAWAQVKKSLADEAEVHLKFSAKLHSEVEKPLMNFRENFKKDMKKCDHHIADLRKQLASRYASVEKARKALTERQRDLEMKTQQLEIKLSNKTEEDIKKARRKSTQAGDDLMRCVDLYNQAQSKWFEEMVTTTLELERLEVERVEMIRQHLCQYTQLRHETDMFNQSTVEPVDQLLRKVDPAKD
B2: FCHSD2 F-BAR domain (domain or fragment, human, UniProt O94868 8-282, looked up)
chain: VKVTQELKNIQVEQMTKLQAKHQAECDLLEDMRTFSQKKAAIEREYAQGMQKLASQYLKRDWPGVKADDRNDYRSMYPVWKSFLEGTMQVAQSRMNICENYKNFISEPARTVRSLKEQQLKRCVDQLTKIQTELQETVKDLAKGKKKYFETEQMAHAVREKADIEAKSKLSLFQSRISLQKASVKLKARRSECNSKATHARNDYLLTLAAANAHQDRYYQTDLVNIMKALDGNVYDHLKDYLIAFSRTELETCQAVQNTFQFLLENSSKVVRDYN
B3: FCHSD1 F-BAR domain (domain or fragment, human, UniProt Q86WN1 12-282, looked up)
chain: QEVKLRFLEQLSILQTWQQREADLLEDIRSYSKQRAAIEREYGQALQKLAGPFLKREGHRSGEMDSRGRTVFGAWRCLLDATVAGGQTRLQASDRYRDLAGGTGRSAKEQVLRKGTENLQRAQAEVLQSVRELSRSRKLYGQRERVWALAQEKAADVQARLNRSDHGIFHSRTSLQKLSTKLSAQSAQYSQQLQAARNEYLLNLVATNAHLDHYYQEELPALLKALVSELSEHLRDPLTSLSHTELEAAEVILEHAHRGEQTTSQVSWEQD

Target: the molecule itself
Assay: AUC

Stoichiometry N, > 2 dimers:
B1, B2, B3
